For this data set, the system named is Escherichia coli TOP10. As to the kind of experiment: shrunken log2 fold change of peptide-encoding DNA abundance (4.5 h post-induction vs induction); higher = less antimicrobial activity (less host growth inhibition). The following applies: time post-induction: 4.5 h; library: site-saturation at positions 5, 18, 19, 20.
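Further: peptides expressed intracellularly from a pBAD plasmid library in pooled LB shake-flask culture, induced with 0.3% L-arabinose, DNA abundance read by NGS, three biological replicates, DESeq2 with apeglm shrinkage.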

For the sequence RRIRERPPRLPRPRPRPESQPRP, the “shrunken log2 fold change” value was -0.101. Under RRIRERPPRLPRPRPRPLFCPRP stands -0.211; under RRIRNRPPRLPRPRPRPRDPPRP, 0.457; under RRIRNRPPRLPRPRPRPCCWPRP, -0.0688.

For RRIRVRPPRLPRPRPRPSFDPRP, the “shrunken log2 fold change” value is -0.269. Next, RRIRARPPRLPRPRPRPSSVPRP: -0.0486; RRIRMRPPRLPRPRPRPCINPRP: -0.0644; RRIRKRPPRLPRPRPRPAQWPRP: 0.421. Next, RRIRKRPPRLPRPRPRPEEQPRP: 3.17; RRIRQRPPRLPRPRPRPRTAPRP: 0.0467; RRIRDRPPRLPRPRPRPLNQPRP: -0.009. Under RRIRCRPPRLPRPRPRPHNEPRP stands -0.535; under RRIRYRPPRLPRPRPRPCRLPRP, 0.0249. Regarding RRIRSRPPRLPRPRPRPDCLPRP, the “shrunken log2 fold change” value is -0.11. Under RRIRGRPPRLPRPRPRPYIMPRP stands -0.746; under RRIRMRPPRLPRPRPRPCRNPRP, -0.326; under RRIRPRPPRLPRPRPRPNSHPRP, -0.521.

For the sequence RRIRHRPPRLPRPRPRPCVEPRP, the “shrunken log2 fold change” value is 0.197. Take RRIRIRPPRLPRPRPRPMDTPRP: the “shrunken log2 fold change” value was found to be 0.0627. Next, RRIRQRPPRLPRPRPRPGESPRP: 0.0357; RRIRWRPPRLPRPRPRPCFQPRP: -0.222. Next, RRIRWRPPRLPRPRPRPAKNPRP: 0.263; RRIRGRPPRLPRPRPRPFWFPRP: 0.283.

As for RRIRRRPPRLPRPRPRPHHLPRP, the “shrunken log2 fold change” value is -0.0855. As to RRIRHRPPRLPRPRPRPQCGPRP, the “shrunken log2 fold change” value is -0.333. Under RRIRIRPPRLPRPRPRPFIYPRP stands -0.899.

For RRIRNRPPRLPRPRPRPRDCPRP, the “shrunken log2 fold change” value was 0.0442. For RRIRIRPPRLPRPRPRPERQPRP, the “shrunken log2 fold change” value turned out to be 0.0212. Turning to RRIRKRPPRLPRPRPRPLGCPRP, the “shrunken log2 fold change” value stood at 0.659.

On to RRIRLRPPRLPRPRPRPIQHPRP, for which the “shrunken log2 fold change” value was -0.213.

Take RRIRQRPPRLPRPRPRPAIYPRP: the “shrunken log2 fold change” value was -0.0621.

Regarding RRIRFRPPRLPRPRPRPDITPRP, the “shrunken log2 fold change” value was -0.0339.

As for RRIRTRPPRLPRPRPRPPPIPRP, the “shrunken log2 fold change” value was 0.451.

On to RRIRPRPPRLPRPRPRPRCKPRP, for which the “shrunken log2 fold change” value was 0.215.

Consider RRIRGRPPRLPRPRPRPRLCPRP, for which the “shrunken log2 fold change” value came out at 1.19. With RRIRVRPPRLPRPRPRPNKLPRP, the “shrunken log2 fold change” value was -0.325. Next, RRIRCRPPRLPRPRPRPFGTPRP: -0.256; RRIRYRPPRLPRPRPRPERLPRP: -0.00207; RRIRWRPPRLPRPRPRPCHHPRP: -0.723. For RRIRRRPPRLPRPRPRPPEKPRP, the “shrunken log2 fold change” value came to 1.6. Next, RRIRGRPPRLPRPRPRPGSYPRP: -0.242. For RRIRYRPPRLPRPRPRPKTEPRP, the “shrunken log2 fold change” value was -0.00177. Under RRIRGRPPRLPRPRPRPLPVPRP stands 0.572; under RRIRCRPPRLPRPRPRPKAFPRP, -0.0921. Under RRIRCRPPRLPRPRPRPFVWPRP stands 0.0706; under RRIRTRPPRLPRPRPRPKIGPRP, -0.0689; under RRIRVRPPRLPRPRPRPHLFPRP, 0.461. Under RRIRFRPPRLPRPRPRPAAHPRP stands 0.333; under RRIRARPPRLPRPRPRPRMCPRP, 0.339; under RRIRPRPPRLPRPRPRPYPSPRP, -0.65. For the sequence RRIRVRPPRLPRPRPRPQEFPRP, the “shrunken log2 fold change” value was -0.06. Under RRIRRRPPRLPRPRPRPMEPPRP stands 0.0257; under RRIRYRPPRLPRPRPRPFEAPRP, -0.886; under RRIRNRPPRLPRPRPRPMVWPRP, -0.03. Under RRIRIRPPRLPRPRPRPHFYPRP stands -0.407. Under RRIRKRPPRLPRPRPRPARPPRP stands 0.575; under RRIRARPPRLPRPRPRPFRGPRP, -0.0013. Take RRIRCRPPRLPRPRPRPMGTPRP: the “shrunken log2 fold change” value is -0.159. Next, RRIRRRPPRLPRPRPRPYVIPRP: 0.0475; RRIRQRPPRLPRPRPRPQEYPRP: 0.0742; RRIRGRPPRLPRPRPRPDSFPRP: 0.00128. With RRIRCRPPRLPRPRPRPIIQPRP, the “shrunken log2 fold change” value was -0.465.

RRIRCRPPRLPRPRPRPKPLPRP: the “shrunken log2 fold change” value amounted to 0.12. Under RRIRDRPPRLPRPRPRPAEYPRP stands -0.491; under RRIRDRPPRLPRPRPRPGIGPRP, 0.76. Next, RRIRIRPPRLPRPRPRPPQYPRP: -0.226; RRIRTRPPRLPRPRPRPITNPRP: -0.489; RRIRHRPPRLPRPRPRPVCDPRP: -0.41. Under RRIRTRPPRLPRPRPRPWFYPRP stands -0.54.

RRIRARPPRLPRPRPRPKNLPRP: the “shrunken log2 fold change” value was -0.181.

Regarding RRIRWRPPRLPRPRPRPADNPRP, the “shrunken log2 fold change” value was 0.212. Under RRIRQRPPRLPRPRPRPENSPRP stands -0.0723.

Consider RRIRCRPPRLPRPRPRPCFWPRP, for which the “shrunken log2 fold change” value amounted to 0.216. With RRIRCRPPRLPRPRPRPWFEPRP, the “shrunken log2 fold change” value was -0.45. Turning to RRIRGRPPRLPRPRPRPNTDPRP, the “shrunken log2 fold change” value came out at 0.197. Next, RRIRKRPPRLPRPRPRPNHAPRP: -0.022; RRIRQRPPRLPRPRPRPCYMPRP: -0.832; RRIRCRPPRLPRPRPRPFEAPRP: 0.102. Under RRIRTRPPRLPRPRPRPKTKPRP stands -0.212. Next, RRIRDRPPRLPRPRPRPVATPRP: 0.814.

Take RRIRTRPPRLPRPRPRPTWEPRP: the “shrunken log2 fold change” value came to 0.95.

Turning to RRIRHRPPRLPRPRPRPVTYPRP, the “shrunken log2 fold change” value is -0.181.

For the sequence RRIRFRPPRLPRPRPRPTHVPRP, the “shrunken log2 fold change” value came out at 0.119.

Take RRIRGRPPRLPRPRPRPHMGPRP: the “shrunken log2 fold change” value amounted to 0.121. Next, RRIRGRPPRLPRPRPRPDPNPRP: 0.522. Under RRIRTRPPRLPRPRPRPSATPRP stands 0.273; under RRIRIRPPRLPRPRPRPFANPRP, -0.0225. For the sequence RRIRPRPPRLPRPRPRPYLSPRP, the “shrunken log2 fold change” value was -0.509. Take RRIRWRPPRLPRPRPRPFCNPRP: the “shrunken log2 fold change” value is -0.24.

Consider RRIRARPPRLPRPRPRPTLDPRP, for which the “shrunken log2 fold change” value was 0.777. Next, RRIRCRPPRLPRPRPRPNTQPRP: -0.0903. Turning to RRIRTRPPRLPRPRPRPQKCPRP, the “shrunken log2 fold change” value was -0.0262. In the case of RRIRARPPRLPRPRPRPWMRPRP, the “shrunken log2 fold change” value came out at 0.263. Regarding RRIRDRPPRLPRPRPRPENWPRP, the “shrunken log2 fold change” value came out at 0.695. Consider RRIRPRPPRLPRPRPRPSEIPRP, for which the “shrunken log2 fold change” value was -0.261.

Turning to RRIRTRPPRLPRPRPRPYYKPRP, the “shrunken log2 fold change” value is -0.38. Next, RRIRKRPPRLPRPRPRPFTLPRP: 0.0269. Take RRIRARPPRLPRPRPRPFACPRP: the “shrunken log2 fold change” value came out at 0.829.

With RRIRRRPPRLPRPRPRPSGWPRP, the “shrunken log2 fold change” value turned out to be 0.333. Under RRIRPRPPRLPRPRPRPHAIPRP stands -0.217; under RRIRTRPPRLPRPRPRPKTMPRP, -0.0972. Next, RRIRYRPPRLPRPRPRPKLNPRP: -0.689. In the case of RRIRERPPRLPRPRPRPIKVPRP, the “shrunken log2 fold change” value is -0.0179. In the case of RRIRWRPPRLPRPRPRPQGFPRP, the “shrunken log2 fold change” value was -0.0818. For the sequence RRIRQRPPRLPRPRPRPSCKPRP, the “shrunken log2 fold change” value is -0.259.

As for RRIRERPPRLPRPRPRPIVHPRP, the “shrunken log2 fold change” value was -0.355. For RRIRKRPPRLPRPRPRPNKYPRP, the “shrunken log2 fold change” value is -0.168. Under RRIRCRPPRLPRPRPRPIALPRP stands -0.102; under RRIRLRPPRLPRPRPRPSCRPRP, -0.116.

As for RRIRGRPPRLPRPRPRPAFQPRP, the “shrunken log2 fold change” value came to 0.202. Take RRIRARPPRLPRPRPRPAQAPRP: the “shrunken log2 fold change” value stood at 0.939.

As for RRIRVRPPRLPRPRPRPVYCPRP, the “shrunken log2 fold change” value was -0.482. Under RRIRTRPPRLPRPRPRPLYFPRP stands -0.418; under RRIRMRPPRLPRPRPRPVCEPRP, 0.353; under RRIRARPPRLPRPRPRPQLEPRP, 0.63.

For RRIRGRPPRLPRPRPRPMAKPRP, the “shrunken log2 fold change” value was 0.658. Under RRIRGRPPRLPRPRPRPFNWPRP stands 0.153; under RRIRTRPPRLPRPRPRPSQNPRP, -0.00631.

For the sequence RRIRLRPPRLPRPRPRPCCHPRP, the “shrunken log2 fold change” value is -0.215. Next, RRIRCRPPRLPRPRPRPLCWPRP: 0.132; RRIRWRPPRLPRPRPRPSNSPRP: -0.498; RRIRIRPPRLPRPRPRPDWGPRP: -0.0242. Under RRIRTRPPRLPRPRPRPAMFPRP stands -0.686. Next, RRIRDRPPRLPRPRPRPDNAPRP: -0.0954; RRIRERPPRLPRPRPRPRKGPRP: 0.0234.

These data come from the supplement of paper PMC9112550, “Optimization of the antimicrobial peptide Bac7 by deep mutational scanning” (BMC Biology, 2022).
